Experimental findings from EP4617284A1 (Shanghai Novamab Biopharmaceuticals Co., Ltd., dated 2025) are described below.

Where “and” joins values, the source holds several entries; their conditions need not be identical. Equal values may be shown once.

Assay [1] has as its target T1, recombinant human IL-13 (human, UniProt P35225 35-146, limits assumed). The assay is described as follows: cell-based or functional assay.
Assay [2] concerns the target T1, recombinant human IL-13. As to the kind of experiment: cell-based or functional assay. The source holds these as a separate data set.
The target in assay [3] is T1, recombinant human IL-13. The assay is described as follows: cell-based or functional assay. The source holds these as a separate data set.
The target in assay [4] is T2, human serum albumin (human, UniProt P02768 25-609).
T2 construct: also called HSA
The assay is described as follows: HSA binding activity, pH 5.5; method not described.

In assay [5] the target is T2, human serum albumin. As to the kind of experiment: HSA binding activity, pH 7.4; method not described.

T1 sequence (P35225 35-146 limits assumed): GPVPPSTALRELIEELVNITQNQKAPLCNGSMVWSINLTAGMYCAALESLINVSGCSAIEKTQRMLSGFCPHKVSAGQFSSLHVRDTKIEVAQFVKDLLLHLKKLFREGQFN

B1: MY9470 (VHH)
chain: EVQLLESGGGLVQPGESLRLSCEVSGHTHTNYCMGWFRQAPGKGLEGVAAIDTDGSTTYADSVKGRFTISKDNAKNTLYLQMNSLKPEDTAMYYCMAEDFRDEYAPEPRLSSGGYCSIGYGMDYWGKGTLVTVSSGGGGSGGGGSGGGGSGGGGSEVQLLESGGGLVQPGESLRLSCEVSGHTHTNYCMGWFRQAPGKGLEGVAAIDTDGSTTYADSVKGRFTISKDNAKNTLYLQMNSLKPEDTAMYYCMAEDFRDEYAPEPRLSSGGYCSIGYGMDYWGKGTLVTVSS
B1: the “Activity IC50 (µg/mL), HEK-Blue IL-4/IL-13 cells” value (from here on “Activity IC50 (µg/mL)”) in the assay with recombinant human IL-13 [1] came out at 1.75 µg/mL.

B2: MY9464 (VHH)
chain: EVQLLESGGGLVQPGESLRLSCEVSGHTHTNYCMGWFRQAPGKGLEGVAAIDTDGSTTYADSVKGRFTISKDNAKNTLYLQMNSLKPEDTAMYYCMAEDFRDEYAPEPRLSSGGYCSIGYGMDYWGKGTLVTVSSGGGGSGGGGSGGGGSGGGGSEVQLLESGGGLVQPGGSLRLSCAASGFTFSDYTMTWVRQAPGKGLEWVSTVNPDGDSTFYRDSVKGRFTISRDNAKNTLYLQLSSLKTEDTAMYYCTKASLITWPQSPRGQGTLVTVSS
Take B2: in the assay with recombinant human IL-13 [1], the “Activity IC50 (µg/mL)” value is 0.0029 µg/mL.

B3: Lebrikizumab (antibody, V domains shown)
VH: QVTLRESGPALVKPTQTLTLTCTVSGFSLSAYSVNWIRQPPGKALEWLAMIWGDGKIVYNSALKSRLTISKDTSKNQVVLTMTNMDPVDTATYYCAGDGYYPYAMDNWGQGSLVTVSS
VL: DIVMTQSPDSLSVSLGERATINCRASKSVDSYGNSFMHWYQQKPGQPPKLLIYLASNLESGVPDRFSGSGSGTDFTLTISSLQAEDVAVYYCQQNNEDPRTFGGGTKVEIKR
On to B3, for which, in the assay with recombinant human IL-13 [1], the “Control antibody 2 IC50 (µg/mL), HEK-Blue IL-4/IL-13 cells” value was 0.0043 µg/mL and 0.0041 µg/mL and 0.004 µg/mL. The “IL-13 functional activity IC50” value with recombinant human IL-13 [2] came to 0.0076 µg/mL.

B4: MY9286 (VHH)
VHH: EVQLLESGGGLVQPGGSLRLSCAASGFTFSDYTMTWVRQAPGKGLEWVSTVNPDGDSTFYRDSVKGRFTISRDNAKNTLYLQLSSLKTEDTAMYYCTKASLITWPQSPRGQGTLVTVSS
Turning to B4, the “Humanized nanobody IC50 (µg/mL), HEK-Blue IL-4/IL-13 cells” value in the assay with recombinant human IL-13 [3] was found to be 3.42 µg/mL.

B5: MY9217 (bispecific antibody)
chain: EVQLLESGGGLVQPGGSLRLSCAASGFTFSDYTMTWVRQAPGKGLEWVSTVNPDGDSTFYRDSVKGRFTISRDNAKNTLYLQLSSLKTEDTAMYYCTKASLITWPQSPRGQGTLVTVSSGGGGSGGGGSGGGGSGGGGSEVQLQESGGGLVEPGGSLRLSCVASGFTFQHYAMSWVRQAPGKGLEWVSSISMVGGGTSYADSVKGRFTMSRDNAKNTLYLQLNSLKSEDTAMYYCVRGWHPDVPRPLGQGTLVTVSSGGGGSGGGGSGGGGSGGGGSEVQLLESGGGLVQPGESLRLSCEVSGHTHTNYCMGWFRQAPGKGLEGVAAIDTDGSTTYADSVKGRFTISKDNAKNTLYLQMNSLKPEDTAMYYCMAEDFRDEYAPEPRLSSGGYCSIGYGMDYWGKGTLVTVSSA
notes: Trivalent long-acting nanobody: two anti-IL-13 VHH and one anti-HSA VHH in one chain; also called MY9286-GS20-HSA HuNb3-11-GS20-MY9293
With B5, the figures for the EC50 with human serum albumin [4] and with human serum albumin [5] were 0.0953 µg/mL and 0.0648 µg/mL, respectively. For the same molecule, in the assay with recombinant human IL-13 [2], the “IL-13 functional activity IC50” value came out at 0.0029 µg/mL.

B6: MY9293 (VHH)
VHH: EVQLLESGGGLVQPGESLRLSCEVSGHTHTNYCMGWFRQAPGKGLEGVAAIDTDGSTTYADSVKGRFTISKDNAKNTLYLQMNSLKPEDTAMYYCMAEDFRDEYAPEPRLSSGGYCSIGYGMDYWGKGTLVTVSS
With B6, the “Humanized nanobody IC50 (µg/mL), HEK-Blue IL-4/IL-13 cells” value in the assay with recombinant human IL-13 [3] came out at 1.05 µg/mL.

B7: MY9466 (VHH)
VHH: EVQLLESGGGLVQPGESLRLSCEVSGHTHTNYCMGWFRQAPGKGLEGVAAIDTDGSTTYADSVKGRFTISKDNAKNTLYLQMNSLKPEDTAMYYCMAEDFRDEYAPEPRLSSGGYCSIGYGMDYWGKGTLVTVSS
In the case of B7, the “Activity IC50 (µg/mL)” value with recombinant human IL-13 [1] was 0.0038 µg/mL.

B8: MY9219 (bispecific antibody)
chain: EVQLQESGGGLVEPGGSLRLSCVASGFTFQHYAMSWVRQAPGKGLEWVSSISMVGGGTSYADSVKGRFTMSRDNAKNTLYLQLNSLKSEDTAMYYCVRGWHPDVPRPLGQGTLVTVSSGGGGSGGGGSGGGGSGGGGSEVQLLESGGGLVQPGGSLRLSCAASGFTFSDYTMTWVRQAPGKGLEWVSTVNPDGDSTFYRDSVKGRFTISRDNAKNTLYLQLSSLKTEDTAMYYCTKASLITWPQSPRGQGTLVTVSSGGGGSGGGGSGGGGSGGGGSEVQLLESGGGLVQPGESLRLSCEVSGHTHTNYCMGWFRQAPGKGLEGVAAIDTDGSTTYADSVKGRFTISKDNAKNTLYLQMNSLKPEDTAMYYCMAEDFRDEYAPEPRLSSGGYCSIGYGMDYWGKGTLVTVSSA
notes: Trivalent long-acting nanobody: two anti-IL-13 VHH and one anti-HSA VHH in one chain; also called HSA HuNb3-11-MY9286-GS20-MY9293-GS20
On to B8, for which the results for the EC50 with human serum albumin [4] and in the assay with human serum albumin [5] were 0.0648 µg/mL and 0.0467 µg/mL, respectively. The “IL-13 functional activity IC50” value with recombinant human IL-13 [2] worked out at 0.0024 µg/mL.

B9: HuNb3-11 (VHH)
VHH: EVQLQESGGGLVEPGGSLRLSCVASGFTFQHYAMSWVRQAPGKGLEWVSSISMVGGGTSYADSVKGRFTMSRDNAKNTLYLQLNSLKSEDTAMYYCVRGWHPDVPRPLGQGTLVTVSS
notes: also called HSA HuNb3-11; Control antibody 3
On to B9, for which the results for the 50% effective concentration (EC50) with human serum albumin [4] and in the assay with human serum albumin [5] were 0.164 µg/mL and 0.11 µg/mL, respectively.

B10: MY9431 (VHH)
chain: EVQLLESGGGLVQPGGSLRLSCAASGFTFSDYTMTWVRQAPGKGLEWVSTVNPDGDSTFYRDSVKGRFTISRDNAKNTLYLQLSSLKTEDTAMYYCTKASLITWPQSPRGQGTLVTVSSGGGGSGGGGSGGGGSGGGGSEVQLLESGGGLVQPGESLRLSCEVSGHTHTNYCMGWFRQAPGKGLEGVAAIDTDGSTTYADSVKGRFTISKDNAKNTLYLQMNSLKPEDTAMYYCMAEDFRDEYAPEPRLSSGGYCSIGYGMDYWGKGTLVTVSS
Turning to B10, the “Activity IC50 (µg/mL)” value with recombinant human IL-13 [1] was 0.0014 µg/mL.

By EC50 is commonly meant the concentration giving half of the maximal effect. A low value points to greater potency.
